Experimental data taken from IntAct's records for PubMed 20956536.

B1: Myosin regulatory light polypeptide 9 (Homo sapiens), P24844 (parent)
chain: MSSKRAKAKTTKKRPQRATSNVFAMFDQSQIQEFKEAFNMIDQNRDGFIDKEDLHDMLASLGKNPTDEYLEGMMSEAPGPINFTMFLTMFGEKLNGTDPEDVIRNAFACFDEEASGFIHEDHLRELLTTMGDRFTDEEVDEMYREAPIDKKGNFNYVEFTRILKHGAKDKDD
B2: Coiled-coil domain-containing protein 141 (Homo sapiens), Q6ZP82-1 (parent)
chain: MSSQGSPSVALSTTTVSSVAVQAGDSKIVIAVIKCGKWVQLQLAESQPNLLEIGSSQDETKKLLHDHELLLAKLKALEDRVWELLQEADKTAEENKDQSQVYDAMAETLGEAWAALVSMLERRTELLRLTSEFFENALEFAIKIDQAEDFLQNTHEFESAESLKSLLQLHEHHTKELLERSLALLNKSQQLTDFIEKFKCEGPNVNPELTQGAHSSCLKVDRLLELLQDRRRQLDKYLKQQWQELSQVLQICQWDQQENQVTCWFQKTIRNLQEQSLGSSLSDNEDRIHKQEELIIKAKEWNSAVEKLKSEALRILLSKDYVEKEHLQLSHQKLSQLQEEFGQLMVERNTWLKKANEFFNSANKAFDVLGRVEAYLKLLKSEGLSLAVLAVRHEELHRKIKDCTTDALQKGQTLISQVDSCSSQVSGIHEMMGCIKRRVDHLTEQCSAHKEYALKKQQLTASVEGYLRKVEMSIQKISPVLSNAMDVGSTRSESEKILNKYLELDIQAKETSHELEAAAKTMMEKNEFVSDEMVSLSSKARWLAEELNLFGQSIDYRSQVLQTYVAFLKSSEEVEMQFQSLKEFYETEIPQKEQDDAKAKHCSDSAEKQWQLFLKKSFITQDLGLEFLNLINMAKENEILDVKNEVYLMKNTMENQKAEREELSLLRLAWQLKATESKPGKQQWAAFKEQLKKTSHNLKLLQEALMPVSALDLGGSLQFILDLRQKWNDMKPQFQQLNDEVQYIMKESEELTGRGAPVKEKSQQLKDLIHFHQKQKERIQDYEDILYKVVQFHQVKEELGRLIKSRELEFVEQPKELGDAHDVQIHLRCSQEKQARVDHLHRLALSLGVDIISSVQRPHCSNVSAKNLQQQLELLEEDSMKWRAKAEEYGRTLSRSVEYCAMRDEINELKDSFKDIKKKFNNLKFNYTKKNEKSRNLKALKYQIQQVDMYAEKMQALKRKMEKVSNKTSDSFLNYPSDKVNVLLEVMKDLQKHVDDFDKVVTDYKKNLDLTEHFQEVIEECHFWYEDASATVVRVGKYSTECKTKEAVKILHQQFNKFIAPSVPQQEERIQEATDLAQHLYGLEEGQKYIEKIVTKHKEVLESVTELCESLTELEEKLKQGDVLKMNPNLEDFHYDYIDLLKEPAKNKQTIFNEERNKGQVQVADLLGINGTGEERLPQDLKVSTDKEGGVQDLLLPEDMLSGEEYECVSPDDISLPPLPGSPESPLAPSDMEVEEPVSSSLSLHISSYGVQAGTSSPGDAQESVLPPPVAFADACNDKRETFSSHFERPYLQFKAEPPLTSRGFVEKSTALHRISAEHPESMMSEVHERALQQHPQAQGGLLETREKMHADNNFTKTQDRLHASSDAFSGLRFQSGTSRGYQRQMVPREEIKSTSAKSSVVSLADQAPNFSRLLSNVTVMEGSPVTLEVEVTGFPEPTLTWWVAYNDKP
partner: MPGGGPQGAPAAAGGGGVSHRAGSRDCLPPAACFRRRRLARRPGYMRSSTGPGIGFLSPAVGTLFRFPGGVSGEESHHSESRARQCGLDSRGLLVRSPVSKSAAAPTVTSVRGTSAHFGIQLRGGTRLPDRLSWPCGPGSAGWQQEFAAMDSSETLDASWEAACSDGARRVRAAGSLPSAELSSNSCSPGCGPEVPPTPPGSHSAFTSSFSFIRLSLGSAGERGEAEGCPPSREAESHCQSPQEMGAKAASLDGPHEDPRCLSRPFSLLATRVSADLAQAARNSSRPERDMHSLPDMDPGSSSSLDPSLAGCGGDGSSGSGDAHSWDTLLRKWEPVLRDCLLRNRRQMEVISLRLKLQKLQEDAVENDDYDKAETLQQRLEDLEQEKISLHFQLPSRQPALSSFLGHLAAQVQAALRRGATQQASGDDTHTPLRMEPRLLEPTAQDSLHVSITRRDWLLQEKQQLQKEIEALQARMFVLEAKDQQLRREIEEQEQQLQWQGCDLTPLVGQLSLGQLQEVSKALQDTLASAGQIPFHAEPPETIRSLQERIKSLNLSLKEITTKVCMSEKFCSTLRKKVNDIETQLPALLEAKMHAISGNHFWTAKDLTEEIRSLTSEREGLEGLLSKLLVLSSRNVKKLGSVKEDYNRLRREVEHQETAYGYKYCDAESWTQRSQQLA
B3: Coiled-coil domain-containing protein 141 (Homo sapiens), Q6ZP82-1 (parent)
chain: B2 chain
partner: B1 chain

Variants of: B1
Conditions: with cc141_mouse Ccdc141, E9Q8Q6
Sequence of cc141_mouse Ccdc141, E9Q8Q6 (E9Q8Q6 whole entry): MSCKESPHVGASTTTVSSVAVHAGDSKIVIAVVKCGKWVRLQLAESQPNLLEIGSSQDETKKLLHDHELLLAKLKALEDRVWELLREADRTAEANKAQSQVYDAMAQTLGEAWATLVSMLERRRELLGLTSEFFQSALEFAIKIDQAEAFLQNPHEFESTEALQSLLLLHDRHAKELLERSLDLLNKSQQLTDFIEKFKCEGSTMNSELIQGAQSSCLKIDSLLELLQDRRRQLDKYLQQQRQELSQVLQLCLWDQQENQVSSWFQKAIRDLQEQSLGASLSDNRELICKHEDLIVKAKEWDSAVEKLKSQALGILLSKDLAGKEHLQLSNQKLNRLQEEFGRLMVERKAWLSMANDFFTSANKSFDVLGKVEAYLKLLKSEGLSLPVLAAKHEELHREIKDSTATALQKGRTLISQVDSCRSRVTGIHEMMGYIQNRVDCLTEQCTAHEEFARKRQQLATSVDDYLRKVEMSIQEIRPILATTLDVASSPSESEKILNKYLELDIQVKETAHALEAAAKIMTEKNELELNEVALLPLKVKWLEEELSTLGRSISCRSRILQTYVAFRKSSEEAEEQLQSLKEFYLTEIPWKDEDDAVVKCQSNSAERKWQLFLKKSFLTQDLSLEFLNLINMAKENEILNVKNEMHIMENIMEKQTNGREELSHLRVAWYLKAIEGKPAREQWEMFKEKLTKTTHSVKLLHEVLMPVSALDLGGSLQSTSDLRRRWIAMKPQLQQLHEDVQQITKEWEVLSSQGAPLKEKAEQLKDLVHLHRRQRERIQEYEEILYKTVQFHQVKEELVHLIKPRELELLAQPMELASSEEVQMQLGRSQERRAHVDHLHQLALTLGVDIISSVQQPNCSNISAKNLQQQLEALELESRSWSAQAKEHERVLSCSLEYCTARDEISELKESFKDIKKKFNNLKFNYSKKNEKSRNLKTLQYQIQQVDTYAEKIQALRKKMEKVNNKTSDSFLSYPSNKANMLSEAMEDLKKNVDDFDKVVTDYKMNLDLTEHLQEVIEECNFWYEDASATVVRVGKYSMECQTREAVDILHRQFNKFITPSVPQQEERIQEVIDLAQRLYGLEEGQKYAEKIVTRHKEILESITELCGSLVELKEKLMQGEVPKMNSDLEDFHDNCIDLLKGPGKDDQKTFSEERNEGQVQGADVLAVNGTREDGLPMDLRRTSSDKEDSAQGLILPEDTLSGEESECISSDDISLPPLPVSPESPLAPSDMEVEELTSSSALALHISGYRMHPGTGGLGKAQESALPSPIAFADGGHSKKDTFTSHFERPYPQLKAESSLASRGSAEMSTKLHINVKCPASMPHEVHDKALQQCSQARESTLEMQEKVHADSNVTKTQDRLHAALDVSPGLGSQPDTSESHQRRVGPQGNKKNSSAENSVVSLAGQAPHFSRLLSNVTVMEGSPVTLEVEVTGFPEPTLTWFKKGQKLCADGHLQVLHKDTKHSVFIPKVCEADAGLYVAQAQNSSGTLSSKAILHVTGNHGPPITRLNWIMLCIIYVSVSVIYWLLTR

Row | effect of a mutation on the interaction | Variant
1 | disrupting interaction strength | MSSKRAKAKTTKKRPQRAAANVFAMFDQSQIQEFKEAFNMIDQNRDGFIDKEDLHDMLASLGKNPTDEYLEGMMSEAPGPINFTMFLTMFGEKLNGTDPEDVIRNAFACFDEEASGFIHEDHLRELLTTMGDRFTDEEVDEMYREAPIDKKGNFNYVEFTRILKHGAKDKDD
2 | increasing interaction strength | MSSKRAKAKTTKKRPQRADDNVFAMFDQSQIQEFKEAFNMIDQNRDGFIDKEDLHDMLASLGKNPTDEYLEGMMSEAPGPINFTMFLTMFGEKLNGTDPEDVIRNAFACFDEEASGFIHEDHLRELLTTMGDRFTDEEVDEMYREAPIDKKGNFNYVEFTRILKHGAKDKDD

Variants of: B2
Conditions: with DISC1, Q9NRI5-3

Row | effect of a mutation on the interaction | Variant
3 | with no effect | R828W

Variants of: B3
Conditions: with myl9_human MYL9, P24844

Row | effect of a mutation on the interaction | Variant
4 | disrupting interaction strength | R828W
